Data published in US20260116920A1, “HUMAN TRANSFERRIN RECEPTOR BINDING PEPTIDE” (PEPTIDREAM INC., priority 2021, published 2026).
Starred links: 1 amine or outer side, 2 acyl side, 3 side chain; linkers in the order of their positions; H or OH if unused. Positions of bridges follow the written chain, without caps; N, C: chain ends. Non-standard residues stand in square brackets, D forms with d. E(PEG8Me) = (S)-30-amino-27-oxo-2,5,8,11,14,17,20,23-octaoxa-26-azahentriacontane-31-oic acid, COCCOCCOCCOCCOCCOCCOCCOCCNC(=O)CC[C@H](N[*:1])C(=O)[*:2]; Qpipzaa = (S)-2-amino-5-(4-(carboxymethyl)piperazin-1-yl)-5-oxopentanoic acid, O=C(CC[C@H](N[*:1])C(=O)[*:2])N1CCN(CC(=O)[*:3])CC1; F4aao = (S)-2-amino-3-(4-(carboxymethoxy)phenyl)propanoic acid, O=C([C@H](Cc1ccc(OCC(=O)[*:3])cc1)N[*:1])[*:2]; Trp(1-CH2CO) = O=C([C@H](Cc1cn(CC(=O)[*:3])c2ccccc12)N[*:1])[*:2]; Phe(3-COOH) = N[C@@H](Cc1cccc(C(=O)O)c1)C(=O)O; NMePhe(3-Cl) = CN[C@@H](Cc1cccc(Cl)c1)C(=O)O; PEG8 = NCCOCCOCCOCCOCCOCCOCCOCCOCCC(=O)O; Lys(N3) = [N-]=[N+]=NCCCC[C@H](N)C(=O)O; NMeY = CN[C@@H](Cc1ccc(O)cc1)C(=O)O

The compounds below were run against T1, human transferrin receptor (hTfR) (Homo sapiens, UniProt P02786) (assay: Evaluation of molecular interaction between transferrin receptor (hTfR) and peptide using surface plasmon resonance (SPR)). Details: KD class for binding to hTfR by SPR; peptide with the linker shown in the same line; 'low signal indicates no activity'.
T1 construct: made in house
T1 sequence (P02786 89-760 limits assumed): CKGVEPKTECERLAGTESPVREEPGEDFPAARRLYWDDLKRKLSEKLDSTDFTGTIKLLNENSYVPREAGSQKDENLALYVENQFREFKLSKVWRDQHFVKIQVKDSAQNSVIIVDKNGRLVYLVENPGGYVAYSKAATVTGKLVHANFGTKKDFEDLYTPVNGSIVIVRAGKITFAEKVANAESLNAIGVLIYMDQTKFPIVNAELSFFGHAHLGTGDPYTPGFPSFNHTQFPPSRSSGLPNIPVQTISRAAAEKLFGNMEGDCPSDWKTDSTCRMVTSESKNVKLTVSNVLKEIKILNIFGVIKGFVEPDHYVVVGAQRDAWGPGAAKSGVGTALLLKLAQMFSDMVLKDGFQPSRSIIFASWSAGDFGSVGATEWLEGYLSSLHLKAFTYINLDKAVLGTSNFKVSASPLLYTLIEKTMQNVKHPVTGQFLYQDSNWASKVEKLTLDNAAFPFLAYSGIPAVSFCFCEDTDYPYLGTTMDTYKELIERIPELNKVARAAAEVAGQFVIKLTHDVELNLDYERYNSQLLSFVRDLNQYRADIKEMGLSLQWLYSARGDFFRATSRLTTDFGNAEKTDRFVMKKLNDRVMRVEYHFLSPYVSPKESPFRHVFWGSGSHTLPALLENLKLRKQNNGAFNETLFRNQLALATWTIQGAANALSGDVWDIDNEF
Format: binding
Description: Evaluation Test of Molecular Interaction Between Transferrin Receptor (hTfR) and Peptide Using Surface Plasmon Resonance (SPR)
The intermolecular interactions of various synthesized peptides with the transferrin receptor (hTfR) by surface plasmon resonance (SPR) of the peptides were tested by the methods described below. Specific test methods are shown below.
NTA sensor chip (Global Life Sciences Technologies Japan K.K.) was inserted into BiacoreT200 (Global Life Sciences Technologies Japan K.K.), then the priming operation was performed three times by using running buffer containing: 10 mM HEPES pH 8.0 (Nacalai Tesque, Inc.), 150 mM NaCl (Nacalai Tesque, Inc.), 0.05% Tween 20 (Nacalai Tesque, Inc.), 0.1% BSA (SIGMA-ALDRICH) and 1.0% DMSO (FUJIFILM Wako Pure Chemical Corporation), and equilibrated at a flow rate of 30 μL/min. 350 mM EDTA solution was reacted at a flow rate of 10 μL/min for 60 seconds, 0.5 mM […] solution (Kishida Chemical Co., Ltd.) was reacted at a flow rate of 10 μL/min for 60 seconds, and then the NTA sensor chip was washed with 3 mM EDTA solution (Nacalai Tesque, Inc.) at a flow rate of 10 μL/min for 60 seconds. After mixing 50 μL each of 60 mM EDC solution (Global Life Science Technologies Japan K.K.) and 650 mM NHS solution (Global Life Science Technologies Japan K.K.), the reaction was carried out at a flow rate of 10 μL/min for 420 seconds. 150 μL of 0.5 μM hTfR dimer solution was prepared by dilution with running buffer and reacted at a flow rate of 10 μL/min for 300 seconds to immobilize hTfR on the NTA sensor chip. For the human transferrin receptor (hTfR), recombinant hTfR described in Example 2 of WO2018/124121 was used. After immobilization, capping was performed by reacting with 1.0 M ethanolamine solution (Global Life Sciences Technologies Japan K.K.) at a flow rate of 10 μL/min for 420 seconds. Peptide lysate prepared in DMSO solution to 10 mM was diluted with running buffer to be a final concentration of 10 μM peptide lysate, then peptide solutions of 100 nM, 50 nM, 25 nM, 10 nM, and 5 nM were prepared. Using the above samples, the kinetics of the peptide against hTfR was obtained by SPR measurement.
The kinetic evaluation model was single-cycle kinetics, and curve fitting was performed using Biacore T200 Evaluation Software Version 3.0 (Global Life Science Technologies Japan K.K.). The binding of the peptide to hTfR was evaluated by performing curve fitting on the obtained sensorgram by least squares method and obtaining the KD value.

SPR	Compound
Low signal	894_0385 ({CH2CO}-AV[NMePhe(3-Cl)]V[Trp(1-CH2CO)]NY[F4aao]II[Qpipzaa][Qpipzaa]F[NMeY]C-NH2; thioether N-15; also: linker PEG4c, place not given here)
Low signal	894_3181 (AVFVWNYFIIEEFYC; cyclised or stapled)
Low signal	894_3183 ({CH2CO}-AV[NMePhe(3-Cl)]V[Trp(1-CH2CO)]NY[F4aao]II[E(PEG8Me)][E(PEG8Me)]F[NMeY]CG[PEG8][Lys(N3)]-NH2; thioether N-15; SMILES CC[C@H](C)[C@@H]1NC(=O)[C@H](Cc2ccc(OCC(=O)O)cc2)NC(=O)[C@H](Cc2ccc(O)cc2)NC(=O)[C@H](CC(N)=O)NC(=O)[C@H](Cc2cn(CC(=O)O)c3ccccc23)NC(=O)[C@H](C(C)C)NC(=O)[C@H](Cc2cccc(Cl)c2)N(C)C(=O)[C@H](C(C)C)NC(=O)[C@H](C)NC(=O)CSC[C@@H](C(=O)NCC(=O)NCCOCCOCCOCCOCCOCCOCCOCCOCCC(=O)N[C@@H](CCCCN=[N+]=[N-])C(N)=O)NC(=O)[C@H](Cc2ccc(O)cc2)N(C)C(=O)[C@H](Cc2ccccc2)NC(=O)[C@H](CCC(=O)NCCOCCOCCOCCOCCOCCOCCOCCOC)NC(=O)[C@H](CCC(=O)NCCOCCOCCOCCOCCOCCOCCOCCOC)NC(=O)[C@H]([C@@H](C)CC)NC1=O)
Low signal	894_3184 ({CH2CO}-AV[NMePhe(3-Cl)]V[Trp(1-CH2CO)]NY[F4aao]II[E(PEG8Me)][E(PEG8Me)][Phe(3-COOH)][NMeY]CG[Lys(N3)]-NH2; thioether N-15; SMILES CC[C@H](C)[C@@H]1NC(=O)[C@H](Cc2ccc(OCC(=O)O)cc2)NC(=O)[C@H](Cc2ccc(O)cc2)NC(=O)[C@H](CC(N)=O)NC(=O)[C@H](Cc2cn(CC(=O)O)c3ccccc23)NC(=O)[C@H](C(C)C)NC(=O)[C@H](Cc2cccc(Cl)c2)N(C)C(=O)[C@H](C(C)C)NC(=O)[C@H](C)NC(=O)CSC[C@@H](C(=O)NCC(=O)N[C@@H](CCCCN=[N+]=[N-])C(N)=O)NC(=O)[C@H](Cc2ccc(O)cc2)N(C)C(=O)[C@H](Cc2cccc(C(=O)O)c2)NC(=O)[C@H](CCC(=O)NCCOCCOCCOCCOCCOCCOCCOCCOC)NC(=O)[C@H](CCC(=O)NCCOCCOCCOCCOCCOCCOCCOCCOC)NC(=O)[C@H]([C@@H](C)CC)NC1=O)

Same assay, conditions: KD class for binding to hTfR by SPR; peptide with the linker shown in the same line; 'low signal indicates no activity'; read-out: SPR

Kd	Compound
0.001 to 0.1 µM	CC[C@H](C)[C@@H]1NC(=O)[C@H](Cc2ccc(OC)cc2)NC(=O)[C@H](Cc2ccc(O)cc2)NC(=O)[C@H](CC(N)=O)NC(=O)[C@H](Cc2c[nH]c3ccccc23)NC(=O)[C@H](C(C)C)NC(=O)[C@H](Cc2cccc(Cl)c2)N(C)C(=O)[C@H](C(C)C)NC(=O)[C@H](C)NC(=O)CSC[C@@H](C(=O)NCCOCCOCCOCCOCCC(N)=O)NC(=O)[C@H](Cc2ccc(O)cc2)N(C)C(=O)[C@H](Cc2ccc(O)cc2)NC(=O)[C@H](CCCNC(=N)N)NC(=O)[C@H](CCCCN)NC(=O)[C@H]([C@@H](C)CC)NC1=O [894_0292]
0.001 to 0.1 µM	CC[C@H](C)[C@@H]1NC(=O)[C@H](Cc2ccc(OC)cc2)NC(=O)[C@H](Cc2ccc(O)cc2)NC(=O)[C@H](CC(N)=O)NC(=O)[C@H](Cc2c[nH]c3ccccc23)N(C)C(=O)[C@H](C(C)C)NC(=O)[C@H](Cc2cccc(Cl)c2)N(C)C(=O)[C@H](C(C)C)NC(=O)[C@H](C)NC(=O)CSC[C@@H](C(=O)NCCOCCOCCOCCOCCC(N)=O)NC(=O)[C@H](Cc2ccc(O)cc2)N(C)C(=O)[C@H](Cc2ccc(O)cc2)NC(=O)[C@H](CCCNC(=N)N)NC(=O)[C@H](CCCNC(=N)N)NC(=O)[C@H]([C@@H](C)CC)NC1=O [894_0293]
